B1: LINE1-full (parent)
chain: UACGUAGGUGGUUUUCCCCUGAUAGUGCUAAGGGGGCCUGGAAGUUUGGACUGGGCAGAGCUCAACACAGCGUGGCAAAGUGGCUGUGGCUAGACUGCCUCUCUGGAUUCCUCGUCACUCAGCAGGGCAUCUCUGAGAGAAAUGCC

39 variants from the RNAGym collection of RNA variant scans (doi:10.7554/elife.90254) can be followed below.

The variants in the series derive from B1. The experiment in a line: self-cleavage, relative activity (ratio to wild type); higher = more cleavage; in vitro, sequencing; the parent is a self-cleaving ribozyme.
Turning to UACGUAGGUGGUUUUCCCCUGAUAGUGCUAAGGGGGCCUGGAAGUCUGGACUGGGCAUAGCUCAACACAGCGUGGCAAAGUGGCUGUGGCUAGACUGCCUCUCUGGAUUCCUCGUCACUCAGCAGGGCAUCUCUGAGAGAAAUGCC [U46C G58U], the self-cleavage is 0.05. Turning to UACGUAGGUGGUUUUCCCCUGAUAGUGCUAAGGGGGCCUGGAAGUCUGGACUGGGCAGAGCUCAACACAGCGUGGCAAAAUGGCUGUGGCUAGACUGCCUCUCUGGAUUCCUCGUCACUCAGCAGGGCAUCUCUGAGAGAAAUGCC [U46C G80A], the self-cleavage was found to be 2.95.

As for UACGUAGGUGGUUUUCCCCUGAUAGUGCUAAGGGGGCCUGGAAGUCUGGACUGGGCAGAGCUCAACACAGCGUGGCAAAGUGGCUGUGGCUAGACUGCCUCUCUGGAUUCCUCGUCACUCAGCAGGGCAUCUCUGAGAAAAAUGCC [U46C G139A], the self-cleavage turned out to be 1.23.

Take UACGUAGGUGGUUUUCCCCUGAUAGUGCUAAGGGGGCCUGGAAGUCUGGACUGGGCAGAGCUCAACACAGCGUGGCAAAGUGGCUGUGGCUAGACUGCCUCUCUGGAUUCCUCGUCUCUCAGCAGGGCAUCUCUGAGAGAAAUGCC [U46C A117U]: the self-cleavage stood at 1.78. As to UACGUAGGUGGUUUUCCCCUGAUAGUGCUAAGGGGGCCUGGAAGUCUGGACUGGGCAGAGCUCAACACAGCGUGGCAAAGUGGCUGUGGCUAGACUGCCUCUCUGGAUUCCUUGUCACUCAGCAGGGCAUCUCUGAGAGAAAUGCC [U46C C113U], the self-cleavage stood at 1.53.

For the variant UACGUAGGUGGUUUUCCCCUGAUAGUGCUAAGGGGGCCUGGAAGUCUGGACUGGGCAGAGCUCAACACAGCGUGGCAAAGUGGCUGUGGCUAGAUUGCCUCUCUGGAUUCCUCGUCACUCAGCAGGGCAUCUCUGAGAGAAAUGCC [U46C C95U], the self-cleavage came out at 0.23. The value for UACGUAGGUGGUUUUCCCCUGAUAGUGCUAAGGGGGCCUGGAAGUCUGGACUGGGCAGAGCUCAACACAGCGUGGCAAAGUGGCUGUGGCUAUACUGCCUCUCUGGAUUCCUCGUCACUCAGCAGGGCAUCUCUGAGAGAAAUGCC [U46C G93U] was 0.06; that for UACGUAGGUGGUUUUCCCCUGAUAGUGCUAAGGGGGCCUGGAAGUCUGGACUGGGCAGAGCUCAACACAGCGUGGCAAAGUGGCUGUGGCUAGACUGCCUCUCUGGAUUCCUCGUCACUCAACAGGGCAUCUCUGAGAGAAAUGCC [U46C G122A] was 1.6; that for UACGUAGGUGGUUUUCCCCUGAUAGUGCUAAGGGGGCCUGGAAGUCUGGACUGGGCAGAGCUCAACACAGCAUGGCAAAGUGGCUGUGGCUAGACUGCCUCUCUGGAUUCCUCGUCACUCAGCAGGGCAUCUCUGAGAGAAAUGCC [U46C G72A] was 0.92. On to UACGUAGGUGGUUUUCCCCUGAUAGUGCUAAGGGGGCCUGGAAGUCUGGACUGGGCAGAGCUCAACACAGCUUGGCAAAGUGGCUGUGGCUAGACUGCCUCUCUGGAUUCCUCGUCACUCAGCAGGGCAUCUCUGAGAGAAAUGCC [U46C G72U], for which the self-cleavage is 1.35. The value for UACGUAGGUGGUUUUCCCCUGAUAGUGCUAAGGGGGCCUGGAAGUCUGGACUGGGCAGAGCUCAACACAGCGUGGCAAAGUGGCUGUGGCUAGACUGCCUCUCUGGAUUCCUCGUCACUCAGCGGGGCAUCUCUGAGAGAAAUGCC [U46C A124G] was 1.54.

Consider UACGUAGGUGGUUUUCCCCUGAUAGUGCUAAGGGGGCCUGGAAGUCUGGACUGGGCAGAGCUCAACACAGCGUGGCAAAGUGGCUGUGGCUAGACUGCCUCUCUGGAUUCCUCGUCACUCAGCUGGGCAUCUCUGAGAGAAAUGCC [U46C A124U], for which the self-cleavage is 1.25. Then UACGUAGGUGGUUUUCCCCUGAUAGUGCUAAGGGGGCCUGGAAGUCUGGACUGGGCAGAGCUCAACACAGCGUAGCAAAGUGGCUGUGGCUAGACUGCCUCUCUGGAUUCCUCGUCACUCAGCAGGGCAUCUCUGAGAGAAAUGCC [U46C G74A], with 0.52. As for UACGUAGGUGGUUUUCCCCUGAUAGUGCUAAGGGGGCCUGGAAGUCUGGACUGGGUAGAGCUCAACACAGCGUGGCAAAGUGGCUGUGGCUAGACUGCCUCUCUGGAUUCCUCGUCACUCAGCAGGGCAUCUCUGAGAGAAAUGCC [U46C C56U], the self-cleavage stood at 0.5. Consider UACGUAGGUGGUUUUCCCCUGAUAGUGCUAAGGGGGCCUGGAAGUCUGGACUGGGCAGAGCUCAACACAGCGUGGCAAAGUGGCUGUGGCUAGACUGCCUCUCUGGAUUCCUCAUCACUCAGCAGGGCAUCUCUGAGAGAAAUGCC [U46C G114A], for which the self-cleavage stood at 1.22. The value for UACGUAGGUGGUUUUCCCCUGAUAGUGCUAAGGGGGCCUGGAAGUCUGGACUGGGCAGAGCUCAACACAGCGUGGCAAAGUGGCUGUGGCUAGACUGCCUCUCUGGAUUCCUCUUCACUCAGCAGGGCAUCUCUGAGAGAAAUGCC [U46C G114U] was 1.12. Consider UACGUAGGUGGUUUUCCCCUGAUAGUGCUAAGGGGGCCUGGAAGUCUGGACUGGGCAGAGCUCAACACAGCGUGGCAAAGUGGCUGUGGCUAGACUGCCUCUAUGGAUUCCUCGUCACUCAGCAGGGCAUCUCUGAGAGAAAUGCC [U46C C103A], for which the self-cleavage is 1.58.

As for UACGUAGGUGGUUUUCCCCUGAUAGUGCUAAGGGGGCCUGGAAGUCUGGACUGGGCAGAGCUCAACACAGCGUGGCAAAGUGGCUGUGGCUAGACUGCCUCUCUGGAUUCCUCGUCACUCAGCAGGGCAUCUCUGGGAGAAAUGCC [U46C A136G], the self-cleavage was found to be 1.21. The value for UACGUAGGUGGUUUUCCCCUGAUAGUGCUAAGGGGGCCUGGAAGUCUGGACUGGGCAGAGCUCAACACAGCGUGGCAAAGUGGUUGUGGCUAGACUGCCUCUCUGGAUUCCUCGUCACUCAGCAGGGCAUCUCUGAGAGAAAUGCC [U46C C84U] was 0.2. With UACGUAGGUGGUUUUCCCCUGAUAGUGCUAAGGGGGCCUGGAAGUCUGGACUGGGCAGAGCUCAACACAGCGUGGCAAAGUGGCUGUGGCUAGACUGCCUCUCUGGAUUCCUCGUCACUCAGCAGGGCAUCUUUGAGAGAAAUGCC [U46C C133U], the self-cleavage came to 1.13. With UACGUAGGUGGUUUUCCCCUGAUAGUGCUAAGGGGGCCUGGAAGUCUGGACUGGGCAGAGCUCAACACAGCGUGGCAAAGUGGCUGUGGCUAGACUGCCUCUCUGGAUUCCUCGUCACUCAGCAGGGCAUCUCUGAGAGUAAUGCC [U46C A140U], the self-cleavage came out at 1.46. Then UACGUAGGUGGUUUUCCCCUGAUAGUGCUAAGGGGGCCUGGAAGUCUGGACUGGGCAGAGCUCAACACAGCGUGGCAAAGUGGCUGUGGCUAGACUGCCUCUCUGGAUUCCUCGUCACUCAGCAGGGCAUCUCUGAGAGGAAUGCC [U46C A140G], with 1.41; and UACGUAGGUGGUUUUCCCCUGAUAGUGCUAAGGGGGCCUGGAAGUCUGGACUGGGCAGAGCUCAACACAGCGUGGCAAAGUGGCUGUGGCUAGACUACCUCUCUGGAUUCCUCGUCACUCAGCAGGGCAUCUCUGAGAGAAAUGCC [U46C G97A], with 0.23. The value for UACGUAGGUGGUUUUCCCCUGAUAGUGCUAAGGGGGCCUGGAAGUCUGGACUGGGCAGAGCUCAACACAGCGUGGCAAAGUGGCUGUGGCUAGACUGCCUCUCUGGAUUCCUCGUCACUCCGCAGGGCAUCUCUGAGAGAAAUGCC [U46C A121C] was 1.9. As for UACGUAGGUGGUUUUCCCCUGAUAGUGCUAAGGGGGCCUGGAAGUCUGGACUGGGCAGAGCUCAACACAGCGUGGCAAAGUGGCUGUGGCUAGACUGCCUCUCUGGAUUCCUCGUCACUCGGCAGGGCAUCUCUGAGAGAAAUGCC [U46C A121G], the self-cleavage was 1.64.

Turning to UACGUAGGUGGUUUUCCCCUGAUAGUGCUAAGGGGGCCUGGAAGUCUGGACUAGGCAGAGCUCAACACAGCGUGGCAAAGUGGCUGUGGCUAGACUGCCUCUCUGGAUUCCUCGUCACUCAGCAGGGCAUCUCUGAGAGAAAUGCC [U46C G53A], the self-cleavage turned out to be 1.54. Then UACGUAGGUGGUUUUCCCCUGAUAGUGCUAAGGGGGCCUGGAAGUCUGGACUGGGCAGAGCUCAACACAGCGUGGCAAAGUGGCUGUGGCUAGACUGCCUCUCUGGAUUCCUCGUCACUCAGCAGGGCUUCUCUGAGAGAAAUGCC [U46C A129U], with 1.27; and UACGUAGGUGGUUUUCCCCUGAUAGUGCUAAGGGGGCCUGGAAGUCUGGACUGGGCAGAGCUCAACACAGCGUGGCAAAGUGGCUGUGGCUAGACUGCCUCUCUGGAUUCCUCGUCACUCAGCAGGGCGUCUCUGAGAGAAAUGCC [U46C A129G], with 2.35. Then UACGUAGGUGGUUUUCCCCUGAUAGUGCUAAGGGGGCCUGGAAGUCUGGACUGGGCAGAGCUCAACACAGCGUGGCAAAGUGGCUGUGGCUAGACUGCCUCUCUGGAUUCCUCGUCACUUAGCAGGGCAUCUCUGAGAGAAAUGCC [U46C C120U], with 1.57; and UACGUAGGUGGUUUUCCCCUGAUAGUGCUAAGGGGGCCUGGAAGUCUGGACUGGGCAGAGCUCAACACAGCGUGGCAAAGUGGCUGUGGCUAGACUGCCUCUCUGGAUUCCUCGUCACUAAGCAGGGCAUCUCUGAGAGAAAUGCC [U46C C120A], with 0.85; and UACGUAGGUGGUUUUCCCCUGAUAGUGCUAAGGGGGCCUGGAAGUCUGAACUGGGCAGAGCUCAACACAGCGUGGCAAAGUGGCUGUGGCUAGACUGCCUCUCUGGAUUCCUCGUCACUCAGCAGGGCAUCUCUGAGAGAAAUGCC [U46C G49A], with 1.4. Then UACGUAGGUGGUUUUCCCCUGAUAGUGCUAAGGGGGCCUGGAAGUCUGGACUGGGCAGAGCUCAACACAGCGUGGCAAAGUGGCUGUGGCUAGACUGCCUCUCUGAAUUCCUCGUCACUCAGCAGGGCAUCUCUGAGAGAAAUGCC [U46C G106A], with 1.22; and UACGUAGGUGGUUUUCCCCUGAUAGUGCUAAGGGGGCCUGGAAGUCUGGACUGGGCAGAGCUCAACACAGCGUGGCAAAGUGGCUGUGGCUAGACUGCCUCUCUGUAUUCCUCGUCACUCAGCAGGGCAUCUCUGAGAGAAAUGCC [U46C G106U], with 0.84; and UACGUAGGUGGUUUUCCCCUGAUAGUGCUAAGGGGGCCUGGAAGUCUGGACUGGGCAGAGCUCAACACAGCGUGGCAAAGUGGCUGUGGCUAGACUGCCUCUCUGGAUUCCUCGUCACUCAGCAGGGCAUCUCUGAGAGAAAUACC [U46C G144A], with 2.24. On to UACGUAGGUGGUUUUCCCCUGAUAGUGCUAAGGGGGCCUGGAAGUCUAGACUGGGCAGAGCUCAACACAGCGUGGCAAAGUGGCUGUGGCUAGACUGCCUCUCUGGAUUCCUCGUCACUCAGCAGGGCAUCUCUGAGAGAAAUGCC [U46C G48A], for which the self-cleavage turned out to be 1.04. As to UACGUAGGUGGUUUUCCCCUGAUAGUGCUAAGGGGGCCUGGAAGUCUGGACUGGGCAGAGCUCAACACAGCGUGGCAAAGUGGCUGUGGCUAGACUGCCUCUCUGGAUUCCUCGUCACUCAGCACGGCAUCUCUGAGAGAAAUGCC [U46C G125C], the self-cleavage came to 1.44.

For the variant UACGUAGGUGGUUUUCCCCUGAUAGUGCUAAGGGGGCCUGGAAGUCUGGACUGGGCAGAGCUCAACACAGCGUGGCAAAGUGGCUGUGGCUAGACUGCCUCUCUGGAUUCCUCGUCACUCAGCAGGGCAUCUCUGAGUGAAAUGCC [U46C A138U], the self-cleavage came to 1.65. On to UACGUAGGUGGUUUUCCCCUGAUAGUGCUAAGGGGGCCUGGAAGUCUGGACUGGGCAGAGCUCAACACAGUGUGGCAAAGUGGCUGUGGCUAGACUGCCUCUCUGGAUUCCUCGUCACUCAGCAGGGCAUCUCUGAGAGAAAUGCC [U46C C71U], for which the self-cleavage was found to be 1.11.

For UACGUAGGUGGUUUUCCCCUGAUAGUGCUAAGGGGGCCUGGAAGUCUGGACUGGGCAGAGCUCAACACAGGGUGGCAAAGUGGCUGUGGCUAGACUGCCUCUCUGGAUUCCUCGUCACUCAGCAGGGCAUCUCUGAGAGAAAUGCC [U46C C71G], the self-cleavage worked out at 0.96.
